What is called stoichiometry N is the number of molecules, sites or subunits per partner or assembly.

Assay [1] concerns the target Tilapia Lake virus nucleoprotein (TiLV-NP) (Tilapia Lake virus). The assay can be described thus: cryo-EM structure.
Assay [2] has the same target. The assay can be described thus: mass photometry; apo TiLV-NP at 25 nM; 50 mM HEPES pH 8, 150 mM NaCl, 2 mM TCEP.
For assay [3] the target is unchanged. The assay can be described thus: mass photometry; RNA-bound TiLV-NP (40-mer vRNA loop) at 25 nM TiLV-NP; 50 mM HEPES pH 8, 150 mM NaCl, 2 mM TCEP.
Assay [4] shares this target. Described as above. The source holds these as a separate data set.
Assay [5] shares this target. The assay can be described thus: SEC-MALS; apo TiLV-NP injected at 5 and 3 mg/ml; Superdex 200 Increase 10/300 GL; 50 mM HEPES pH 8, 150 mM NaCl, 2 mM TCEP. (SEC sorts molecules by how far they enter the pores of the column.)

Values joined by “and” are separate entries in the source; they are usually repeats but may differ in a detail not shown here. Equal entries are not always repeated.

Consider “Tilapia Lake virus nucleoprotein (TiLV-NP) (natural protein)”, for which the stoichiometry N in assay [1] is 4 and 5 and 6; in assay [2], 3 and 4 and 5; in assay [3] it was 5 and 6; in assay [4], 3 and 4; in assay [5] it was 3 and 4.

The values are drawn from publication PMC11850232.
